Results taken from patent US20190359687A1 (Bayer, published 2019).
Changes are numbered by the printed parent chain. In names and notes the source's numbering stands.

T1: purified human glycophorin A protein (Sigma, cat # G5017) (human, UniProt P02724 20-150)
T1 construct: mature; also called Sigma hGPA; Sigma GPA
T1 sequence (looked up): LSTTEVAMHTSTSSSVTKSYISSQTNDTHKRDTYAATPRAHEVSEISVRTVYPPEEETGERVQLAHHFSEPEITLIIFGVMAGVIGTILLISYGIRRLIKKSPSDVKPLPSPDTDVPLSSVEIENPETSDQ

T2: human glycophorin A in the red blood cell membrane (human, UniProt P02724 20-150)
T2 construct: whole, on cells; used for intact RBC, isolated RBC membranes and transfected cells; the assay field tells which; also called GPA; hGPA
T2 sequence (looked up): T1 sequence (looked up)

T3: recombinant human GPA ectodomain (human, UniProt P02724 20-91)
T3 construct: also called recombinant hGPA ECD; recGPA
T3 sequence: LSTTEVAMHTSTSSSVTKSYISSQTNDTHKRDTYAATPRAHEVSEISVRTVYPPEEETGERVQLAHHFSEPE

B1: TPP-5316 (Fab, V domains shown)
VH: QVQLVQSGAEVKKPGASVKVSCKASGYTFTTYTIHWVRQAPGQGLEWIGYINPSSDYTRYNPKFKDRVTLTTDKSTSTAYMELRSLRSDDTAVYYCQTGTRDYWGQGTTVTVSS
VL: DIQLTQSPSFLSASVGDRVTITCSAASSVSYIYWFQQKPGKAPKLLIYSTSTLPSGVPSRFSGSGSGTEYTLTISSLQPEDFATYYCHQRNSFPFTFGQGTKLEIKR
notes: also called VH: (E1Q)
B2: TPP-5357 (Fab, V domains shown)
VH: B1 VH with Q1E
VL: DIQLTQSPSFLSASVGDRVTITCRAASSVSSYIYWFQQKPGKAPKLLIYSTSTLPSGVPSRFSGSGSGTEYTLTISSLQPEDFATYYCHQRNSFPFTFGQGTKLEIKR
notes: also called VL: (S24R)#
B3: TPP-5324 (Fab, V domains shown)
VH: B1 VH with Q1E, Y57S
VL: B1 VL
notes: also called VH: (Y57S)
B4: TPP-5319 (Fab, V domains shown)
VH: B1 VH with Q1E, I34M
VL: B1 VL
notes: also called VH: (I34M)
B5: TPP-5351 (Fab, V domains shown)
VH: B1 VH with Q1E
VL: B1 VL with Y70F
notes: also called VL: (Y70F)
B6: TPP-5328 (Fab, V domains shown)
VH: B1 VH with Q1E, K65Q
VL: B1 VL
notes: also called VH: (K65Q)
B7: TPP-5344 (Fab, V domains shown)
VH: B1 VH with Q1E
VL: B1 VL with V29I
notes: also called VL: (V29I)
B8: TPP-5352 (Fab, V domains shown)
VH: B1 VH with Q1E
VL: B1 VL with H88Q
notes: also called VL: (H88Q)
B9: TPP-5349 (Fab, V domains shown)
VH: B1 VH with Q1E
VL: B1 VL with T50A
notes: also called VL: (T50A)
B10: TPP-5355 (Fab, V domains shown)
VH: B1 VH with Q1E
VL: B1 VL with F95Y
notes: also called VL: (F95Y)
B11: TPP-5342 (Fab, V domains shown)
VH: B1 VH with Q1E
VL: B1 VL with S27Q
notes: also called VL: (S27Q)
B12: TPP-5330 (Fab, V domains shown)
VH: B1 VH with Q1E, L70M
VL: B1 VL
notes: also called VH: (L70M)
B13: TPP-5335 (Fab, V domains shown)
VH: B1 VH with Q1E, Q97A
VL: B1 VL
notes: also called VH: (Q97A)
B14: TPP-5323 (Fab, V domains shown)
VH: B1 VH with Q1E, D56G
VL: B1 VL
notes: also called VH: (D56G)
B15: TPP-5345 (Fab, V domains shown)
VH: B1 VH with Q1E
VL: B1 VL with I32L
notes: also called VL: (I32L)
B16: TPP-5354 (Fab, V domains shown)
VH: B1 VH with Q1E
VL: B1 VL with F93Y
notes: also called VL: (F93Y)
B17: TPP-5334 (Fab, V domains shown)
VH: B1 VH with Q1E, D89E
VL: B1 VL
notes: also called VH: (D89E)
B18: TPP-5327 (Fab, V domains shown)
VH: B1 VH with Q1E, P62Q
VL: B1 VL
notes: also called VH: (P62Q)
B19: TPP-5322 (Fab, V domains shown)
VH: B1 VH with Q1E, S55G
VL: B1 VL
notes: also called VH: (S55G)
B20: TPP-5347 (Fab, V domains shown)
VH: B1 VH with Q1E
VL: B1 VL with F35Y
notes: also called VL: (F35Y)
B21: TPP-5343 (Fab, V domains shown)
VH: B1 VH with Q1E
VL: B1 VL with S28G
notes: also called VL: (S28G)
B22: TPP-5331 (Fab, V domains shown)
VH: B1 VH with Q1E, T72R
VL: B1 VL
notes: also called VH: (T72R)
B23: TPP-5332 (Fab, V domains shown)
VH: B1 VH with Q1E, K74T
VL: B1 VL
notes: also called VH: (K74T)
B24: TPP-5326 (Fab, V domains shown)
VH: B1 VH with Q1E, N61A
VL: B1 VL
notes: also called VH: (N61A)
B25: TPP-5320 (Fab, V domains shown)
VH: B1 VH with Q1E, I48M
VL: B1 VL
notes: also called VH: (I48M)
B26: TPP-5317 (Fab, V domains shown)
VH: B1 VH with Q1E, T31S
VL: B1 VL
notes: also called VH: (T31S)
B27: TPP-5329 (Fab, V domains shown)
VH: B1 VH with Q1E, D66G
VL: B1 VL
notes: also called VH: (D66G)
B28: TPP-5333 (Fab, V domains shown)
VH: B1 VH with Q1E, R84S
VL: B1 VL
notes: also called VH: (R84S)
B29: TPP-5346 (Fab, V domains shown)
VH: B1 VH with Q1E
VL: B1 VL with Y33A
notes: also called VL: (Y33A)
B30: TPP-5353 (Fab, V domains shown)
VH: B1 VH with Q1E
VL: B1 VL with R90L
notes: also called VL: (R90L)

Target: T1, purified human glycophorin A protein …
Assay: ELISA, native hGPA

binding by ELISA relative to parental	Binder
1.33	B1
0.23	B2
0.53	B3
0.99	B4
0.71	B5
0.89	B6
0.84	B7
0.36	B8
0.12	B9
1.16	B10
0.91	B11
1.2	B12
0.77	B13
1.49	B14
0.6	B15
0.33	B16
0.8	B17
0.98	B18
0.86	B19
0.52	B20
0.95	B21
1.11	B22
0.83	B23
0.56	B24
1.24	B25
1.36	B26
1.02	B27
0.92	B28

Target: T2, human glycophorin A in the red blood …
Assay: ELISA, human RBC membranes;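 further: antibodies bound to isolated human red blood cell membrane ghosts coated on 96-well plates, tested 1.5 h at room temperature, bound antibody quantified with a detection antibody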
Description: In order to evaluate binding of antibodies to GPA in the native context of the red blood cell membrane we made use of isolated red blood cell membranes, also called red blood cells ghosts. These membranes are prepared by first isolating red blood cells from citrated whole blood. Citrated whole blood is layered on to Ficol and centrifuged at low speed for 20 minutes to pellet the red blood cells. The supernatant containing plasma and other blood cells is discarded and the red blood cell pellet is subsequently washed 3 times in 10 cell volumes of phosphate buffered saline (PBS). A 10 ml pellet of purified red blood cells is resuspended in 30 ml of cold low osmorality 20 mM phosphate buffer (pH7.4) and incubated for 30 mins to break open the RBC. After Centrifugation at 10,000 rpm for 30 min at 5° C. the hemoglobin containing supernatant is discarded. To the membrane pellet another 30 ml of 20 mM phosphate buffer is added and the sample centrifuged again at 10,000 rpm for 30 min at 5° C. to pellet the membrane fraction. This wash and centrifugation step is repeated another 4 times. The red blood cell membranes are then resuspended in 20 mL of PBS to achieve an equivalent of approximately 2.5E9 cells/mL and stored frozen at −20° C. Binding of antibodies to RBC ghost can be measured by ELISA in which the RBC ghost suspension (5×10⁶ in 100 ul PBS) was added to each well of flat bottom 96-well ELISA microtiter plates (2HB, Immunolon) and the plates incubated overnight at 4° C. The plates were blocked with Starting blocking buffer (Thermo Fisher) for 2 hours at room temperature (RT). Antibodies or other test molecules were added to each well and incubated for 1.5 hours at RT. After 4 washes 100 ul of an appropriate detection antibody was added to each well and incubated for 1 hour at RT. After 4 washes the detection antibody was measured using appropriate detection reagents.

binding by ELISA relative to parental	Binder
1.16	B1
0.37	B2
0.41	B3
0.85	B4
0.71	B5
0.61	B6
0.6	B7
0.42	B29
0.34	B8
0.27	B9
1.18	B10
0.75	B11
0.91	B12
0.65	B13
1.72	B14
0.43	B15
0.35	B16
0.72	B17
0.74	B18
0.82	B19
0.43	B20
0.71	B21
0.96	B22
0.58	B23
0.45	B24
0.99	B25
0.68	B26
0.2	B30
1	B27
0.59	B28

Target: T3, recombinant human GPA ectodomain
Assay: ELISA, rec hGPA ectodomain

binding by ELISA relative to parental	Binder
1.29	B1
0.23	B2
0.34	B3
1.08	B4
0.78	B5
0.91	B6
0.77	B7
0.03	B29
0.26	B8
1.35	B10
0.95	B11
1.29	B12
0.83	B13
1.64	B14
0.48	B15
0.17	B16
0.89	B17
0.99	B18
0.91	B19
0.35	B20
0.97	B21
1.07	B22
0.87	B23
0.53	B24
1.35	B25
1.34	B26
0.04	B30
1.12	B27
0.97	B28
